The text below walks through data of publication PMC4931022, “Arginine demethylation is catalysed by a subset of JmjC histone lysine demethylases” (Nature Communications, 2016).

What all share (format): biochemical
In test [1] the target is T1, KDM3A (Homo sapiens, UniProt Q9Y4C1).
T1 construct: KDM3A515–1,317; His6 (N); made in house; host or cells: Sf9 cells
T1 sequence (Q9Y4C1 515-1317 limits assumed): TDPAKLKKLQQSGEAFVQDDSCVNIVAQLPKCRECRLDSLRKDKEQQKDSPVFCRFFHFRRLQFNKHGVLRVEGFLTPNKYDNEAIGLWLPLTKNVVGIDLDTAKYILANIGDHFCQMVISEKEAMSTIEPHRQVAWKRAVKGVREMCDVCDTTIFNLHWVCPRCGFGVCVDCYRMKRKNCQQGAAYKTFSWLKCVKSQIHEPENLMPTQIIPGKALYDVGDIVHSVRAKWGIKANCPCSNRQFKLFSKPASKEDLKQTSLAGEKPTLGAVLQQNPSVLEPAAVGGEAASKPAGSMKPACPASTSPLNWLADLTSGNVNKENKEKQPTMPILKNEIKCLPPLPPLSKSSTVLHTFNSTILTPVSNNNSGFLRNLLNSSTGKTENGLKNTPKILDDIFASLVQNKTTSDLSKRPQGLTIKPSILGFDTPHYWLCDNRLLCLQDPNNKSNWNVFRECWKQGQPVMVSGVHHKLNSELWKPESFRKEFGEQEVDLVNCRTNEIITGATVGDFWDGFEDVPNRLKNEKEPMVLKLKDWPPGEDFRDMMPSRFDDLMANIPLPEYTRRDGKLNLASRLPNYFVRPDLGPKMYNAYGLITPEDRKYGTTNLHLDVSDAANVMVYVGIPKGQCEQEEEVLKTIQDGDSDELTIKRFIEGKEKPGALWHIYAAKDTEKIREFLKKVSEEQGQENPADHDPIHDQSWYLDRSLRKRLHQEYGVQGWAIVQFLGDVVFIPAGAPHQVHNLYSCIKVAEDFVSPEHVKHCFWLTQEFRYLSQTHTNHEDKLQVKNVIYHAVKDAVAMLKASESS
Nature of the test: Formaldehyde dehydrogenase-coupled demethylation assay, KDM3A. The settings on record: for kcat / Km: KDM3A catalytic domain, apparent, preliminary, 37 °C, mean±s.e.m., n=3; for kcat: FDH/NAD+-coupled assay; for Km: FDH/NAD+-coupled formaldehyde assay, 2OG 200 μM, Fe(II) 10 μM, ascorbate 100 μM, fluorescence 355/460 nm; for kcat/KM: KDM3A, calculated from the average kcat and KM values, μM^−1 s^−1 for this quantity. Here is the method: (§1) Formaldehyde dehydrogenase-coupled assays. Preliminary kinetic parameters were determined by detection of the formaldehyde by-product of the demethylation reaction using a FDH (formaldehyde dehydrogenase-coupled)/NAD^+-coupled assay as previously described. Assays were carried out in buffer (enzyme-dependent) with the addition of Fe(II) ammonium sulfate (10 μM), sodium ascorbate (100 μM), 2OG (200 μM), NAD^+ (500 μM), enzyme (0.2–4 μM) and FDH enzyme (0.025 U per assay, Sigma-Aldrich; total volume 30 μl) and were conducted at 37 °C in clear-bottom black 384-well plates. […] The Km and Vmax values were calculated from the reaction rate during the linear phase of formaldehyde production, as determined by the slope of the fluorescence signal recorded.

The target of test [2] is T2, KDM4E (Homo sapiens, UniProt B2RXH2).
T2 construct: His6 (N); made in house; host or cells: Escherichia coli
T2 sequence (B2RXH2 1-337): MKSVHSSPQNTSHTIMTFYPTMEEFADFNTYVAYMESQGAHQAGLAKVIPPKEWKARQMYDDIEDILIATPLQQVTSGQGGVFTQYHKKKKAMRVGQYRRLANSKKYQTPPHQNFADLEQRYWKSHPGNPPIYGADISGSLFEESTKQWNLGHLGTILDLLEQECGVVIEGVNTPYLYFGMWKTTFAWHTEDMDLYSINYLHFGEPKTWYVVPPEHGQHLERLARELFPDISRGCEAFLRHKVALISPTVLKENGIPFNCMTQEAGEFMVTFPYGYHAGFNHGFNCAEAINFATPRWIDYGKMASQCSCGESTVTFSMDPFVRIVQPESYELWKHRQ
Nature of the test: Formaldehyde dehydrogenase-coupled demethylation assay, KDM4E. The following applies: for Km: FDH/NAD+-coupled formaldehyde assay, 2OG 200 μM, Fe(II) 10 μM, ascorbate 100 μM. Here is the method: as §1

In test [3] the target is T3, KDM5C (Homo sapiens, UniProt P41229).
T3 construct: KDM5C1–765 was produced as an N-terminally His6-tagged protein in Sf9 cells; His6 (N); made in house; host or cells: Sf9 cells (provided by the Structural Genomics Consortium)
T3 sequence (P41229 1-765): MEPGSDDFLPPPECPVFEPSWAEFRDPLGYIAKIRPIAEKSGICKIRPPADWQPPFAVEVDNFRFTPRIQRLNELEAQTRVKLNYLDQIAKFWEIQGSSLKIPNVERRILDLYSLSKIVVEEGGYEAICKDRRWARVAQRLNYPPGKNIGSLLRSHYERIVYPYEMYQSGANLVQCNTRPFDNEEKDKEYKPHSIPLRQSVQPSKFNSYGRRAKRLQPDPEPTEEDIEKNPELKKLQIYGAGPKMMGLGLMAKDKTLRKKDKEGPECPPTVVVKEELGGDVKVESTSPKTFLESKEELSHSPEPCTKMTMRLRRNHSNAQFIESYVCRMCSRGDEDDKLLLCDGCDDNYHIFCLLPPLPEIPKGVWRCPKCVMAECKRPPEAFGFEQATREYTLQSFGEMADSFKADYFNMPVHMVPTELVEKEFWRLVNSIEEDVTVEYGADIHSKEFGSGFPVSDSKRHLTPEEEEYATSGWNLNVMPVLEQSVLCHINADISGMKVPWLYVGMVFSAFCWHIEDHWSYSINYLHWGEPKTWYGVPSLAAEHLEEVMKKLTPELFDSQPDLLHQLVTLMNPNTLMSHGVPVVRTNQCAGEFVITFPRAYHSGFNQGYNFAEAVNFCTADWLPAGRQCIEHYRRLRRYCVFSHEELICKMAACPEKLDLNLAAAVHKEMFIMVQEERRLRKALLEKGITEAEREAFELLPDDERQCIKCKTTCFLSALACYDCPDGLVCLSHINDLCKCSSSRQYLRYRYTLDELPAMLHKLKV
Nature of the test: MALDI MS activity assay, recombinant KDM5C catalytic domain. The settings on record: peptide 10 μM, 1 h, 37 °C, MALDI-TOF MS; for demethylation, in words: KDM5C catalytic domain 2 μM. Here is the method:
(§2) MALDI MS activity assays. Recombinant proteins (2 μM) were incubated with peptides (10 μM, sequences are given in Supplementary Table 1) and cofactors/substrates for 1 h at 37 °C, unless otherwise specified. Reactions were quenched with 1:1 (v/v) methanol and analysed with MALDI MS. Assay conditions for each enzyme are given in Supplementary Table 2. Negative controls without enzyme were included.
(§3) Supplementary Table 2 Assay conditions with truncated recombinant protein. […]

Test [4] concerns the target T1, KDM3A. Nature of the test: MALDI MS activity assay, recombinant KDM3A catalytic domain. The following applies: KDM3A 2 μM, peptide 10 μM, 1 h, 37 °C, 2OG 100 μM, ascorbate 100 μM, Fe(II) 50 μM, 50 mM HEPES pH 7.5; MALDI-TOF MS, −14 Da shift. Here is the method:
as §2
(§4) Supplementary Table 2 Assay conditions with truncated recombinant protein.
(§5) Supplementary Table 3 Assay conditions with full length Flag-tagged KDMs.

Test [5] addresses T2, KDM4E. Nature of the test: MALDI MS activity assay, recombinant KDM4E catalytic domain. The following applies: peptide 10 μM, 1 h, 37 °C, MALDI-TOF MS; for demethylation, in words: KDM4E catalytic domain 2 μM. Here is the method:
as §2, §3

For test [6], the target named is T4, KDM6B (Homo sapiens, UniProt O15054).
T4 construct: His6 (N); made in house; host or cells: Escherichia coli
T4 sequence (O15054 1141-1590 limits assumed): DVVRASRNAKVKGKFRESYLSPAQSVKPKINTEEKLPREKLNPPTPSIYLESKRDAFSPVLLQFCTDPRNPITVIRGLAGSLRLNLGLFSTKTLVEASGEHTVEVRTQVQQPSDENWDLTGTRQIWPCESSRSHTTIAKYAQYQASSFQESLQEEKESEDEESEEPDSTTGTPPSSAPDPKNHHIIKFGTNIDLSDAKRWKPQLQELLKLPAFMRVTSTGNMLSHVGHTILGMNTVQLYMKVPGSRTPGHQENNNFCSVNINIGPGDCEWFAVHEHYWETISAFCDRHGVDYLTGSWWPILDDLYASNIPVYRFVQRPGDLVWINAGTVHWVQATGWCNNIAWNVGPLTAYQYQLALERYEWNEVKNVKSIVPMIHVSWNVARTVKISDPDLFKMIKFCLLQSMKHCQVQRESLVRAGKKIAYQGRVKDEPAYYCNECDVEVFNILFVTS
Nature of the test: MALDI MS activity assay, recombinant KDM6B catalytic domain. The following applies: KDM6B 2 μM, peptide 10 μM, 1 h, 37 °C, 2OG 100 μM, ascorbate 100 μM, Fe(II) 10 μM, 50 mM HEPES pH 7.5, 150 mM NaCl; MALDI-TOF MS, −14 Da shift. Here is the method: as §2, §4, §5

The target of test [7] is T3, KDM5C. Nature of the test: Formaldehyde dehydrogenase-coupled demethylation assay, KDM5C. The settings on record: for kcat / Km: KDM5C catalytic domain, apparent, preliminary, 37 °C, mean±s.e.m., n=3; for kcat: FDH/NAD+-coupled assay; for Km: FDH/NAD+-coupled formaldehyde assay, 2OG 200 μM, Fe(II) 10 μM, ascorbate 100 μM; for kcat/KM: KDM5C, calculated from the average kcat and KM values, μM^−1 s^−1 for this quantity. As for the experimental part: as §1

The mark [8] stands for this setting: KDM4E catalytic domain, apparent, preliminary, FDH/NAD+-coupled assay, 37 °C, mean±s.e.m., n=3.
Setting [9] is: KDM4E catalytic domain, apparent, preliminary, 37 °C, mean±s.e.m., n=3.
The mark [10] stands for this setting: KDM4E, calculated from the average kcat and KM values, μM^−1 s^−1 for this quantity.

As a reminder, the kcat is the maximal rate divided by the concentration of active sites. By Km is commonly meant the substrate concentration at which the rate is half of its maximum. By kcat/KM is commonly meant the turnover number divided by the Michaelis constant. As to “ARTKQTAR-Rme-STGGKA (ARTKQTARRSTGGKA; monomethylarginine at 9; C-terminal amide) [H3(1-15)K9Rme, histone H3 fragment with monomethylarginine replacing methylated K9]”, the kcat was 11.0±1.2 × 10^−3 s^−1 in test [1]; 2.7±0.2 × 10^−3 s^−1 in test [2] (setting [8]); 0.0027 ± 0.0002 s⁻¹ in test [2] (KDM4E, FDH-coupled assay). For the same substance, the Km in test [1] came to 12.1 ± 3.1 µM; in test [2] (setting [9]), 169 ± 35.9 µM. Further, the results for the kcat/KM in test [1] and in test [2] (setting [10]) were 907.6 × 10^−6 and 15.9 × 10^−6, respectively.

Turning to “SG-Rme2s-GKGGKGLGKGGA [H4 (1–15) R3me2s, 'natural' histone H4 residues 1-15 peptide symmetrically dimethylated at R3]”, the “observed arginine demethylation activity” value is reported as “−” in test [3] (KDM5C 2 μM, 2OG 100 μM, ascorbate 100 μM, Fe(II) 10 μM, 50 mM HEPES pH 7.5, −14 Da shift); “−” in test [4]; “+” in test [5] (KDM4E 2 μM, 2OG 200 μM, ascorbate 100 μM, Fe(II) 10 μM, 50 mM HEPES pH 7.5, −14 Da shift); “−” in test [6].

With “ART-Rme2a-QTARKSTGGKA [H3(1-15)K4Rme2a, histone H3 fragment with asymmetric dimethylarginine replacing methylated K4]”, in test [7], the kcat was 41.2±3.5 × 10^−3 s^−1, the Km was 29 ± 0.5 µM and the kcat/KM is 1,420.0 × 10^−6.

As to “ARTKQTAR-Rme2a-STGGKA (ARTKQTARRSTGGKA; asymmetric dimethylarginine at 9; C-terminal amide) [H3(1-15)K9Rme2a, histone H3 fragment with asymmetric dimethylarginine replacing methylated K9]”, the catalytic constant (kcat) in test [1] is 5.0±0.6 × 10^−3 s^−1; in test [2] (setting [8]) it was 4.6±0.7 × 10^−3 s^−1. Also, the Km in test [1] stood at 11.6 ± 1.4 µM; in test [2] (setting [9]), 66 ± 5 µM. Further, the kcat/KM in test [1] was 430.7 × 10^−6; in test [2] (KDM4E), 7.04e-05 µM⁻¹ s⁻¹; in test [2] (setting [10]), 70.4 × 10^−6.

Regarding “ART-Kme3-QTARKSTGGKA [H3(1-15)K4me3, recognized histone H3 N-methylated-lysine peptide substrate for KDM5C, reference compound]”, in test [7], the turnover number (kcat) is reported as 67.1±10.3 × 10^−3 s^−1, the Michaelis constant (Km) is 7.6 ± 2.9 µM and the kcat/KM is listed as 8,800 × 10^−6.

With “ART-Rme2s-QTARKSTGGKA [H3(1-15)K4Rme2s, histone H3 fragment with symmetric dimethylarginine replacing methylated K4]”, in test [7], the catalytic constant (kcat) is 4.6±0.7 × 10^−3 s^−1, the Km came out at 21.1 ± 5.8 µM and the kcat/KM is on record as 219.0 × 10^−6.

For “ARTKQTAR-Rme2s-STGGKA (ARTKQTARRSTGGKA; symmetric dimethylarginine at 9; C-terminal amide) [H3(1-15)K9Rme2s, histone H3 fragment with symmetric dimethylarginine replacing methylated K9]”, the kcat in test [1] is 3.0±0.3 × 10^−3 s^−1; in test [2] (setting [8]) it was 8.7±0.3 × 10^−3 s^−1. For the same substance, the Km in test [1] turned out to be 23.7 ± 1.9 µM; in test [2] (setting [9]), 101 ± 11 µM. Moreover, the specificity constant (kcat/KM) was 126.5 × 10^−6 in test [1], 8.59e-05 µM⁻¹ s⁻¹ in test [2] (KDM4E) and 85.9 × 10^−6 in test [2] (setting [10]).

Consider SG-Rme2a-GKGGKGLGKGGAK [H4R3me2a], for which the “demethylation, in words” value in test [3] and in test [5] was “low levels of demethylation” each time.

Consider “A-Kme3-TKQTARKSTGGKA [H3R2Kme3, histone H3 peptide with trimethyllysine substituted for R2]”, for which the “demethylation, in words” value in test [3] is “not observed to be a KDM substrate”; in test [3] (listed as H3(1–15)R2Kme3), “no demethylation activity”; in test [5], “not observed to be a KDM substrate”; in test [5] (listed as H3(1–15)R2Kme3), “no demethylation activity”.
